# Data as given in patent publication US20130336893A1 (Sanofi, published 2013).
# *1 amine or outer side, *2 acyl side, *3 side chain or, on linkers, in order; H or OH if unused. Where no end group is shown, it is not given here. Side-chain parts run from the residue outwards. [ ]: non-standard residue; d: D form. The star is where a group is joined. γGlu = O=C(O)[C@H](CCC(=O)[*:2])N[*:1]; Palmitoyl = CCCCCCCCCCCCCCCC(=O)*
# Key:
# human glucagon receptor = human glucagon receptor (human, UniProt P47871 26-477); assay: cell-based or functional assay
# human GLP-1 receptor = human GLP-1 receptor (human, UniProt P43220 24-463); assay: cell-based or functional assay
# human glucagon receptor, sequence (P47871 26-477): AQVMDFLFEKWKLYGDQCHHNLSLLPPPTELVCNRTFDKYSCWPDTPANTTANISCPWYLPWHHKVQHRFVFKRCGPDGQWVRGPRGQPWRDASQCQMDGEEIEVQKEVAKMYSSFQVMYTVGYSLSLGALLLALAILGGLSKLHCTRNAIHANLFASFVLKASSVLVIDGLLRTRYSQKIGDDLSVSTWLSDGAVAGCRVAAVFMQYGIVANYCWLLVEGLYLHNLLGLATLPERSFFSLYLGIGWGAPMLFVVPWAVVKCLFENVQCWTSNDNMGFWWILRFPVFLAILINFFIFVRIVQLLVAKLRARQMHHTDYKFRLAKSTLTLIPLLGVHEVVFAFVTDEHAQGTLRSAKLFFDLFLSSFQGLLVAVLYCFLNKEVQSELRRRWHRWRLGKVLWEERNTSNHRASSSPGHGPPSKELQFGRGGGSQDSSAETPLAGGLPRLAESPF
Binder,EC50 hGlucagonR (cAMP formation) (human glucagon receptor) [nM],EC50 hGLP-1R (cAMP formation) (human GLP-1 receptor) [nM]
H[dS]QGTFTSDLSKQMESRAAQLFIEWLKAGGPSSGAPPPSK([γGlu-Palmitoyl])-NH2 (N-terminus assumed; SMILES CCCCCCCCCCCCCCCC(=O)N[C@@H](CCC(=O)NCCCC[C@H](NC(=O)[C@H](CO)NC(=O)[C@@H]1CCCN1C(=O)[C@@H]1CCCN1C(=O)[C@@H]1CCCN1C(=O)[C@H](C)NC(=O)CNC(=O)[C@H](CO)NC(=O)[C@H](CO)NC(=O)[C@@H]1CCCN1C(=O)CNC(=O)CNC(=O)[C@H](C)NC(=O)[C@H](CCCCN)NC(=O)[C@H](CC(C)C)NC(=O)[C@H](Cc1c[nH]c2ccccc12)NC(=O)[C@H](CCC(=O)O)NC(=O)[C@@H](NC(=O)[C@H](Cc1ccccc1)NC(=O)[C@H](CC(C)C)NC(=O)[C@H](CCC(N)=O)NC(=O)[C@H](C)NC(=O)[C@H](C)NC(=O)[C@H](CCCNC(=N)N)NC(=O)[C@H](CO)NC(=O)[C@H](CCC(=O)O)NC(=O)[C@H](CCSC)NC(=O)[C@H](CCC(N)=O)NC(=O)[C@H](CCCCN)NC(=O)[C@H](CO)NC(=O)[C@H](CC(C)C)NC(=O)[C@H](CC(=O)O)NC(=O)[C@H](CO)NC(=O)[C@@H](NC(=O)[C@H](Cc1ccccc1)NC(=O)[C@@H](NC(=O)CNC(=O)[C@H](CCC(N)=O)NC(=O)[C@@H](CO)NC(=O)[C@@H](N)Cc1c[nH]cn1)[C@@H](C)O)[C@@H](C)O)[C@@H](C)CC)C(N)=O)C(=O)O) [SEQ ID NO: (79)],0.195,0.0037
H[dS]QGTFTSDLSKQMESRRAQDFIEWLKSGGPSSGAPPPSK([γGlu-Palmitoyl])-NH2 (N-terminus assumed; SMILES CCCCCCCCCCCCCCCC(=O)N[C@@H](CCC(=O)NCCCC[C@H](NC(=O)[C@H](CO)NC(=O)[C@@H]1CCCN1C(=O)[C@@H]1CCCN1C(=O)[C@@H]1CCCN1C(=O)[C@H](C)NC(=O)CNC(=O)[C@H](CO)NC(=O)[C@H](CO)NC(=O)[C@@H]1CCCN1C(=O)CNC(=O)CNC(=O)[C@H](CO)NC(=O)[C@H](CCCCN)NC(=O)[C@H](CC(C)C)NC(=O)[C@H](Cc1c[nH]c2ccccc12)NC(=O)[C@H](CCC(=O)O)NC(=O)[C@@H](NC(=O)[C@H](Cc1ccccc1)NC(=O)[C@H](CC(=O)O)NC(=O)[C@H](CCC(N)=O)NC(=O)[C@H](C)NC(=O)[C@H](CCCNC(=N)N)NC(=O)[C@H](CCCNC(=N)N)NC(=O)[C@H](CO)NC(=O)[C@H](CCC(=O)O)NC(=O)[C@H](CCSC)NC(=O)[C@H](CCC(N)=O)NC(=O)[C@H](CCCCN)NC(=O)[C@H](CO)NC(=O)[C@H](CC(C)C)NC(=O)[C@H](CC(=O)O)NC(=O)[C@H](CO)NC(=O)[C@@H](NC(=O)[C@H](Cc1ccccc1)NC(=O)[C@@H](NC(=O)CNC(=O)[C@H](CCC(N)=O)NC(=O)[C@@H](CO)NC(=O)[C@@H](N)Cc1c[nH]cn1)[C@@H](C)O)[C@@H](C)O)[C@@H](C)CC)C(N)=O)C(=O)O) [SEQ ID NO: (78)],0.0181,0.0042
HSQGTFTSDLSKQMDERRAQDFIEWLKNGGPSSGAPPPS-NH2 [SEQ ID NO: (5)],0.067,0.0166
